Holding throughout (assay): IEDB peptide-MHC binding, purified MHC/competitive/radioactivity; filed as Kd, often an IC50 or EC50 that approximates it; ≥ and ≤ were set here for values at or beyond the usual limits of such assays
Assay [1] has as its target HLA-A*03:01.
Assay [2] addresses HLA-A*11:01.
Assay [3] concerns the target HLA-A*31:01.
In assay [4] the target is HLA-A*33:01.
Assay [5] concerns the target HLA-A*68:01.
[6] abbreviates: source organism: Vaccinia virus WR.
The mark [7] stands for this setting: source organism: SARS coronavirus Tor2.
Setting [8] is: source organism: Dengue virus 1 Nauru/West Pac/1974.
Where [9] appears, read: source organism: Dengue virus 4 Philippines/H241/1956.
The mark [10] stands for this setting: source organism: Dengue virus 1 Brazil/97-11/1997.
The mark [11] stands for this setting: source organism: Dengue virus 2 Jamaica/1409/1983.
[12] abbreviates: source organism: Dengue virus 3 Martinique/1243/1999.
Where [13] appears, read: source organism: Mammarenavirus machupoense.
Setting [14] is: source organism: Mammarenavirus whitewaterense.
Where [15] appears, read: source organism: Vaccinia virus Copenhagen.
The mark [16] stands for this setting: source organism: Dengue virus 4 Dominica/814669/1981.
Setting [17] is: source organism: Mammarenavirus guanaritoense.

Consider 58 sequences from the Immune Epitope Database (IEDB).

Usually Kd stands for the concentration at which binding is half-saturated.

Turning to QIFNEDTSYY, the Kd in assay [1] (setting [6]) was 1420 nM; in assay [2] (setting [6]), 725 nM; in assay [3] (setting [6]), at least 35700 nM; in assay [4] (setting [6]) it was at least 70000 nM; in assay [5] (setting [6]) it was 11.7 nM.

In the case of GLILFVLALY, the Kd in assay [1] (setting [6]) is at least 22000 nM; in assay [2] (setting [6]), 7250 nM; in assay [3] (setting [6]), at least 43900 nM; in assay [4] (setting [6]), at least 26800 nM; in assay [5] (setting [6]), 457 nM.

Regarding ASAFFGMSR, the Kd in assay [1] (setting [7]) was 3170 nM; in assay [2] (setting [7]) it was 148 nM; in assay [3] (setting [7]), 21.9 nM; in assay [4] (setting [7]) it was at least 41500 nM; in assay [5] (setting [7]), 197 nM.

As to RVMANNVKK, the Kd in assay [1] (setting [6]) is 17.2 nM; in assay [2] (setting [6]), 16.7 nM; in assay [3] (setting [6]) it was 139 nM; in assay [4] (setting [6]), at least 77700 nM; in assay [5] (setting [6]), 104 nM.

Take KSTQSVLCVK: the Kd came out at 60.7 nM in assay [1] (setting [6]); 0.497 nM in assay [2] (setting [6]); 90 nM in assay [3] (setting [6]); 11400 nM in assay [4] (setting [6]); 26.5 nM in assay [5] (setting [6]).

Turning to FLSGRGLGK, the Kd in assay [1] (setting [8]) stood at 91 nM.

Regarding ECLRRRVTR, in assay [4] (setting [9]), the Kd was determined as 244 nM.

Take TTIKPVSYK: the Kd in assay [1] (setting [7]) worked out at 2.04 nM; in assay [2] (setting [7]), 0.759 nM; in assay [3] (setting [7]), 103 nM; in assay [4] (setting [7]), 144 nM; in assay [5] (setting [7]), 1.5 nM.

Consider KVIDLGCGR, for which the Kd in assay [3] (setting [10]) stood at 9210 nM.

Regarding AINVLRGFRK, the Kd in assay [1] (setting [11]) was 91.8 nM; in assay [2] (setting [11]), 257 nM.

Consider KIMSIGFEAR, for which the Kd in assay [1] (setting [6]) worked out at 175 nM; in assay [2] (setting [6]), 36.2 nM; in assay [3] (setting [6]) it was 6.06 nM; in assay [4] (setting [6]) it was 562 nM; in assay [5] (setting [6]) it was 88.1 nM.

For ILRNYLRLY, the Kd in assay [1] (setting [6]) was 648 nM; in assay [2] (setting [6]), 4540 nM; in assay [3] (setting [6]) it was 8270 nM; in assay [4] (setting [6]), 3020 nM; in assay [5] (setting [6]), at least 32200 nM.

In the case of IGQMFETTMR, in assay [4] (setting [11]), the Kd stood at 1630 nM.

For PISASDMQK, the Kd in assay [1] (setting [6]) is 3230 nM; in assay [2] (setting [6]), 163 nM; in assay [3] (setting [6]), 282 nM; in assay [4] (setting [6]), 7290 nM; in assay [5] (setting [6]), 8850 nM.

In the case of YVLGIFLRK, the Kd in assay [1] (setting [9]) stood at 1.22 nM; in assay [2] (setting [9]), 9.88 nM.

Consider FIHMVRCCK, for which the equilibrium dissociation constant (Kd) in assay [1] (setting [6]) came out at 267 nM; in assay [2] (setting [6]) it was 2010 nM; in assay [3] (setting [6]) it was 421 nM; in assay [4] (setting [6]), 360 nM; in assay [5] (setting [6]), 6.32 nM.

Turning to MWTLMYFHR, the values for the Kd in assay [3] (setting [11]) and in assay [4] (setting [11]) were 7.83 nM and 1.51 nM, respectively.

On to VFAQVKQMYK, for which the Kd came to 66.5 nM in assay [1] (setting [7]); 60.6 nM in assay [2] (setting [7]); 124 nM in assay [3] (setting [7]); 863 nM in assay [4] (setting [7]); 179 nM in assay [5] (setting [7]).

As for RMLFTSTNDK, the Kd amounted to 3.92 nM in assay [1] (setting [6]); 1.54 nM in assay [2] (setting [6]); 112 nM in assay [3] (setting [6]); 15100 nM in assay [4] (setting [6]); 35.6 nM in assay [5] (setting [6]).

On to ILSKWHTSAR, for which the Kd in assay [1] (setting [6]) was 36.3 nM; in assay [2] (setting [6]) it was 3550 nM; in assay [3] (setting [6]), 126 nM; in assay [4] (setting [6]) it was 399 nM; in assay [5] (setting [6]) it was 844 nM.

In the case of EECLRRRVTR, in assay [4] (setting [9]), the Kd came out at 779 nM.

On to SSFIVPEFAK, for which the Kd in assay [1] (setting [6]) turned out to be 37.4 nM; in assay [2] (setting [6]), 0.534 nM; in assay [3] (setting [6]), 9400 nM; in assay [4] (setting [6]), 9270 nM; in assay [5] (setting [6]) it was 2.23 nM.

Consider SFSNTIQSYK, for which the Kd came out at 117 nM in assay [1] (setting [6]); 130 nM in assay [2] (setting [6]); 220 nM in assay [3] (setting [6]); 12200 nM in assay [4] (setting [6]); 177 nM in assay [5] (setting [6]).

FTTNIWLKLR: the Kd in assay [4] (setting [11]) was 68.3 nM; in assay [5] (setting [11]), 28.6 nM.

As to VSVDAMIHK, the Kd in assay [1] (setting [6]) was 1820 nM; in assay [2] (setting [6]), 2.46 nM; in assay [3] (setting [6]), 7140 nM; in assay [4] (setting [6]), at least 31900 nM; in assay [5] (setting [6]), 1450 nM.

Take IIKLPTLFGR: the Kd in assay [1] (setting [6]) is 89.2 nM; in assay [2] (setting [6]), 137 nM; in assay [3] (setting [6]), 0.251 nM; in assay [4] (setting [6]), 17.3 nM; in assay [5] (setting [6]) it was 69.6 nM.

In the case of SITPNNLNK, the Kd in assay [1] (setting [6]) is 866 nM; in assay [2] (setting [6]) it was 25.4 nM; in assay [3] (setting [6]), at least 77900 nM; in assay [4] (setting [6]), at least 77700 nM; in assay [5] (setting [6]) it was 1450 nM.

On to TYLALIATFK, for which, in assay [4] (setting [12]), the Kd was 69.9 nM.

Take WLSYFVASFR: the Kd was 56.6 nM in assay [1] (setting [7]); 14.5 nM in assay [2] (setting [7]); 0.461 nM in assay [3] (setting [7]); 13.4 nM in assay [4] (setting [7]); 0.494 nM in assay [5] (setting [7]).

On to ISNMLSIINK, for which the Kd amounted to 142 nM in assay [1] (setting [12]) and 113 nM in assay [2] (setting [12]).

Consider NSEYIESKAK, for which the Kd in assay [1] (setting [6]) is 5890 nM; in assay [2] (setting [6]), 1960 nM; in assay [3] (setting [6]), at least 34200 nM; in assay [4] (setting [6]) it was at least 30600 nM; in assay [5] (setting [6]), 4190 nM.

For the sequence PMFAVGLLFR, in assay [4] (setting [10]), the Kd was 91.1 nM.

FLMAFANQIH: the Kd in assay [1] (setting [13]) is 11800 nM; in assay [2] (setting [13]) it was at least 69700 nM; in assay [3] (setting [13]), at least 70000 nM; in assay [4] (setting [13]), at least 23800 nM; in assay [5] (setting [13]), at least 31800 nM.

ATLKNVTEVK: the Kd in assay [2] (setting [9]) came to 279 nM.

LAELLEMKY: the Kd in assay [1] (setting [6]) is 14400 nM; in assay [2] (setting [6]) it was at least 77900 nM; in assay [3] (setting [6]), at least 77900 nM; in assay [4] (setting [6]) it was at least 77700 nM; in assay [5] (setting [6]), at least 77700 nM.

For ATYLGPQFCK, the Kd in assay [2] (source organism: Mammarenavirus lassaense) worked out at 3.25 nM.

As for QKCGELLEFH, the Kd was at least 70000 nM in assay [1] (setting [14]); at least 69700 nM in assay [2] (setting [14]); 11300 nM in assay [3] (setting [14]); at least 70000 nM in assay [4] (setting [14]); at least 70100 nM in assay [5] (setting [14]).

As for KLGEFGKAK, the dissociation constant (Kd) in assay [1] (setting [11]) came to 22.1 nM.

Consider AQPCSDKAYK, for which the Kd turned out to be 319 nM in assay [1] (setting [7]); 67.6 nM in assay [2] (setting [7]); 1130 nM in assay [3] (setting [7]); 9490 nM in assay [4] (setting [7]); 6260 nM in assay [5] (setting [7]).

In the case of MILMKMKKK, the equilibrium dissociation constant (Kd) in assay [1] (setting [9]) was 86.3 nM.

Take QVIAVEPGK: the Kd in assay [2] (setting [10]) was 781 nM.

As for GVTATITPR, the Kd in assay [3] (setting [9]) worked out at 14.9 nM.

ALAPPVNDLK: in assay [1] (setting [9]), the Kd was found to be 48.1 nM.

AIFLTTLSR: the Kd in assay [1] (setting [11]) was 61.5 nM; in assay [2] (setting [11]) it was 65.7 nM.

Regarding WSLMYFHRR, the Kd in assay [3] (setting [12]) was found to be 0.548 nM; in assay [4] (setting [12]), 0.235 nM.

ALLGKKKNPR: the Kd in assay [3] (setting [9]) stood at 357 nM.

For the sequence MLIYSMWGK, the Kd was determined as 10.6 nM in assay [1] (setting [15]), 2.63 nM in assay [2] (setting [15]), 459 nM in assay [3] (setting [15]) and 2040 nM in assay [4] (setting [15]).

On to DSYTQVCDHR, for which the Kd in assay [4] (setting [8]) came out at 1820 nM.

As for VVKDDPDHYK, the Kd is at least 40300 nM in assay [3] (setting [6]), at least 70000 nM in assay [4] (setting [6]) and at least 70200 nM in assay [5] (setting [6]).

As to TTIFAGHLK, the Kd came out at 30.7 nM in assay [2] (setting [10]) and 25.4 nM in assay [5] (setting [10]).

In the case of RQDLLVTFK, the Kd in assay [2] (setting [10]) was 197 nM.

Regarding FWKLVDRER, the Kd in assay [4] (setting [12]) turned out to be 44.6 nM.

Regarding FTTNIWMKFR, the figures for the Kd in assay [3] (setting [9]), in assay [4] (setting [9]) and in assay [5] (setting [9]) were 1.57 nM, 29.5 nM and 1.73 nM, respectively.

As for SILASSLLR, the Kd in assay [1] (setting [12]) was 722 nM; in assay [2] (setting [12]) it was 125 nM.

For NSALTLHWFR, the Kd in assay [3] (setting [16]) is 3.53 nM; in assay [4] (setting [16]), 4.07 nM; in assay [5] (setting [16]), 1.75 nM.

As for TTSLFLHLV, the Kd turned out to be 15300 nM in assay [1] (setting [17]) and 2260 nM in assay [4] (setting [17]).

As to TYSDPLALR, the Kd in assay [3] (setting [10]) is at least 77900 nM; in assay [4] (setting [10]), 9.22 nM.

With ECYVQRFFLR, the Kd in assay [1] (setting [17]) turned out to be 17600 nM; in assay [3] (setting [17]) it was 6 nM; in assay [4] (setting [17]) it was 44.9 nM; in assay [5] (setting [17]) it was 279 nM.
